In the DeepSol protein solubility set:

Assay: soluble on expression in E. coli; label from the status in PepcDB or PDB records

Sequence | soluble on expression in E. coli
MGSDKIHHHHHHMITSDELTENLSPFELSLFLEKKLHEENHNLETLLNAGRGNPNWTAPTPREAFFLLGQFATKETLREGSEQTAGMIQPSFGRTQRFLNFLAENPSKGATFLQEIWTAEHNYFGMDKEMWLDAMLDYVIGDNYPNPVRCLKACEQPIKAYLNQELFSSEAQPFDIFAVEGGTAGICYLFDTLANNYLLEKGDRIALLLPTFAPYLEIPELPRYDFDVVKIKAEQMIIDGKTTYQYSNKEIDKLKDPSIKAVFVVNPSNPTANAMGKPTIEQIKQISAVDNPKLMILTDDVYGTFVPAFRSLFTELPYNTACIYSYSKYFGATGWRVGTIAVSQENIFDQLLKELPVARKMELQARYATLNADTSQINFISRLVADSRDIALNHAAGLSSIQQAMMALFSLYALLKDGQAYKDEVMDICHTREKLLFRTLGIEEPLASLNTAYYCEINFRDWTEKRYGPEFSSYLTKSWTITKVLTSLAEKEKLMLLKADAFGSDKWSVRISLANLATNQYSEVGKRMIRLSEHIKEEWLRQKRQAIK | not soluble
MNNENERFEGFFSRVVEQVRTLVLVPICQENKSENASPVCSVSSRVQEVLGLAQAIRLEVVYYETVNINIPRPATLFGTGKVKALTHYISEYDIELVIVDHFLTPVQQRNLEKLWNCKVIDRTALILEIFGDRARTKEGVLQVELAHLSYQKSRLVRSWTHLERQRGGHGFLGGPGETQIEADRRLLQEKIIRIRRELEKVIKTRALHRAKRKKTSHPIVALVGYTNTGKSTLFNRLSGANVLAKDMLFATLDPTLRKVVLPHGKTILLSDTVGFISHLPTHLIAAFRATLEEVVEADLILHVRDMSDLDHRAHGQDVLEVLADLGIDIDDTEHIIEVWNKIDILDEHALNVLQTSARTRLNPAVMVSALMSDGLDQLLTAIEKRVFGEMQSIECLLRPHEMSLISWFYENSGEIMQEGHNDGSVTIRAMLTSEAKKRLDHIKQTMN | not soluble
MIKTGELKYIEEKIERREDLDEDDIVYMYDEADVNDLGKLARSITDKISGKRVSFVSNIILNYTNICNVRCKFCAFYRKSGEYDAYTMTPDGVIDEIRKYYPYGIRQILIQGGVNPNLDLDYYLTVFRKIRENFTEAGINGLSAAEINFISKKAHLTYEETILKLKEAGLETIPGAGAEILDEDVRVKLGRPRGSGRQWLEIMETAHRLGVKTTATMVYGHIESSMDKARHLISIRNLQKKYHGFLSFTPWNMEPDNTELQKEGILKYRAGAEDVIRNIAISRIVFNYDLPIIQSSWLTNGVEMGQLAILYGANDWGGTIYDEKVIPATGKRVGNLRKEIIIRSIKDLGMVPVERDNLYREIAVYE | not soluble
GSPEFMALTQSLKLSNGVMMPVLGFGMWKLQDGNEAETATMWAIKSGYRHIDTAAIYKNEESAGRAIASCGVPREELFVTTKLWNSDQGYESTLSAFEKSIKKLGLEYVDLYLIHWPGKDKFIDTWKAFEKLYADKKVRAIGVSNFHEHHIEELLKHCKVAPMVNQIELHPLLNQKALCEYCKSKNIAVTAWSPLGQGHLVEDARLKAIGGKYGKTAAQVMLRWEIQAGVITIPKSGNEARIKENGNIFDFELTAEDIQVIDGMNAGHRYGPDPEVFMNDF | soluble
MPEITRRRALTAAAAVAATASAAVTLAAPAASAAGHHEPAAPESFDEVYKGRRIQGRPARGAAHHHEHGGGYEVFVDGVQLHVMRNADGSWISVVSHFDPVPTPRAAARAAVDELQGAPLLPFPANLEHHHHHH | soluble
GSMAEGSAVSDPQHAARLLRALSSFREESRFCDAHLVLDGEEIPVQKNILAAASPYIRTKLNYNPPKDDGSTYKIELEGISVMVMREILDYIFSGQIRLNEDTIQDVVQAADLLLLTDLKTLCCEFLEGCIAAENCIGIRDFALHYCLHHVHYLATEYLETHFRDVSSTEEFLELSPQKLKEVISLEKLNVGNERYVFEAVIRWIAHDTEIRKVHMKDVMSALWVSGLDSSYLREQMLNEPLVREIVKECSNIPLS | soluble
GMQGKKFISPGAWFSMNYPSDWNEFEDGEGSFLFYNPDVWTGNFRISAFKGNASYGKDAIRQELKENDSASLVKIGTWDCAYSKEMFQEEGTYYTSHLWITGTGNIAFECSFTVPKGGSAKEAEEVIATLEARKEGEKYPAELIPVRLSEIYQINEGYEWVVSTVKQELKKDFQGVEEDLEKIQQVIDSGKISPKKKDEWLAIGITVCAILTNEVEGMEWKTLIDGNREVPVLEYQGRTIDPMKIAWSKVKAGQPCNIAEAYQSAIDHH | soluble
MINLTHIASSLARAALSDSTKPKMERAINVASHIAGKVALQVTSSLLEQKGLLNERQQKGLSMILKALSGKEPVNNVETHEGGGRFNLARAAFDVASVVWERDKSMHNVMSFLGVSDSKGKMLFSLGKKLADAMAKPEPGKDNSEATNARHAYFSSNLKLNKLMNDLTDQVFNKIR | not soluble
MGSDKIHHHHHHMGEVIKNRYEFVVLFDVENGNPNGDPDAGNMPRIDPESGLGIVTDVCLKRKIRNYIETVKEDEDGYKIYIKENVPLNRSDREACKSLGINDDEDKKVTEALKKLKKSDKDADIKLRDYMCRNFYDIRAFGAVMTTFVKASLNCGQVRGPVQLGFARSIDPVISQEVTITRVAITTEKDAENKSNEMGRKSIVPYGLYRVEGYISANLARKVTGFSEEDLELLWDAVINMFENDHSAARGKMAVRELIVFKHSKELGDCPAYKLFDAVKVQKNDDIQYPRKYQDYTVTINDDEIPDTVEVKRMI | not soluble
MSLSDDRLSLQTFLTRVTAVRLKLQQVVTAPDPEAMIQVLAQTVFQGKGADLTDIQAYGNLIAASLGADWGPAANTLFVRPLDQAWQQILLPSSAGLNRAWQRAIVDEWQGAFSGRYPFAATSSDASLPMLGQMIRADSGRIEQFLAQQLMGLLRKEGSRWVADSRQSQGLRFNPDFLTAINQLSQLADVLYTDGGMGVSFELQGKPVRDVVQTTFVLNGEKHHYFNQRESWQRFRWPGQGDHPGISEGHHHHHH | soluble
MGHHHHHHGGHMSLEIVKEVERLIREGKILDAFELVKQSAPEELRERIEKSFRDAEEIKKLDGIWKKLMLILHFVYASQDAVERQDKQSLVSCVVSSVNAIKLTIELGMKSITPVLMRNAARALILMDMKENAERMYTEAEKICEENRDEEMLAAIENDLATLYYDMGKYNEAKVKAEEALEIRRKIGTKEELAESLATASEIYVKLGDFDEAEECYREAEKLYRELVEEAESFKLNLAILLSNYAMFRKKLGRYQEAEKMFKEALEIFQNLERIDADFMQFVAAAYRHLGDLYREMKEYSKAEEYYKLSREKFRDIQKRWESVASEGGS | soluble
MGSDKIHHHHHHMAKILVVTDGAYGYRIKGTINSFGKKNKFIGIYKINKPDDLIVDDIEFPDELLEKIKEADILLLYTQHPDNTYYLCYEARRLNKDIAIIVATWSGEGEKKELKKFDAICPEEMCLLDENEVGSLIDKYPKLKEFLEEFGTPKVKVYVKDNKVIDVEVLRTSICGSTLFMAKLMKGMEVNDIEEFAKKSAMLIQRYPCVAGKIKIFRGDCRKQKALNIHKEAVLEGIIFI | not soluble
MDGDGDPESVSHPEEASPEEQPEEAGAEASAEEEQLREAEEEEEAEAVEYLAELPEPLLLRVLAELPATELVQACRLVCLRWKELVDGAPLWLLKCQQEGLVPEGSADEERDHWQQFYFLSKRRRNLLRNPCGEEDLEGWSDVEHGGDGWKVEELPGDNGVEFTQDDSVKKYFASSFEWCRKAQVIDLQAEGYWEELLDTTQPAIVVKDWYSGRTDAGSLYELTVRLLSENEDVLAEFATGQVAVPEDGSWMEISHTFIDYGPGVRFVRFEHGGQDSVYWKGWFGARVTNSSVWVEP | soluble
MDKKANSNQNQEQKRETSDAVDRAAKAGLFNRIYVTVGQKVGIVELTKLEPRFERNIEKLTTYHNIIYNMVNAIELQVQVDPKAIVKNQVLCDPDESPWELLGGWINYMGTYHFNGPQSKILDAYSIACGKIGQKERQLQKRTRSHCIKKMRMYTADESVELNNHVAHLKDLLIAIDDSRHQLKSSRTTKEVKAKGEIYRKNIQAFNCTANEVQARLDEVPMIVPHHENELLKFSREVSIFNNSVENLLKEVVFRLGYGKRNDKPSTRAVLK | not soluble
GADEEESTPCDNVETDQQTFACAAFNKQVAERELQSAYDELIERMRDQFGDEAGLMSRIEAAEKVWSQLRDADCKVETHAEQPGSNAYQIAWNSCIAQRSDERAEYLRSLGSQNSDEPAPED | soluble
